The values that follow come from patent US5869271A, “G-beta-gamma regulated phosphatidylinositol-3' kinase” (Onyx Pharmaceuticals, priority 1997, dated 1999).

For the data set, the target named is free p120 PI3K catalytic subunit (Sus scrofa, UniProt O02697). Description: PI3K assay on free recombinant p120 (Sf9-derived). It counts as biochemical, porcine.
Chain of free p120 PI3K catalytic subunit (O02697 whole entry): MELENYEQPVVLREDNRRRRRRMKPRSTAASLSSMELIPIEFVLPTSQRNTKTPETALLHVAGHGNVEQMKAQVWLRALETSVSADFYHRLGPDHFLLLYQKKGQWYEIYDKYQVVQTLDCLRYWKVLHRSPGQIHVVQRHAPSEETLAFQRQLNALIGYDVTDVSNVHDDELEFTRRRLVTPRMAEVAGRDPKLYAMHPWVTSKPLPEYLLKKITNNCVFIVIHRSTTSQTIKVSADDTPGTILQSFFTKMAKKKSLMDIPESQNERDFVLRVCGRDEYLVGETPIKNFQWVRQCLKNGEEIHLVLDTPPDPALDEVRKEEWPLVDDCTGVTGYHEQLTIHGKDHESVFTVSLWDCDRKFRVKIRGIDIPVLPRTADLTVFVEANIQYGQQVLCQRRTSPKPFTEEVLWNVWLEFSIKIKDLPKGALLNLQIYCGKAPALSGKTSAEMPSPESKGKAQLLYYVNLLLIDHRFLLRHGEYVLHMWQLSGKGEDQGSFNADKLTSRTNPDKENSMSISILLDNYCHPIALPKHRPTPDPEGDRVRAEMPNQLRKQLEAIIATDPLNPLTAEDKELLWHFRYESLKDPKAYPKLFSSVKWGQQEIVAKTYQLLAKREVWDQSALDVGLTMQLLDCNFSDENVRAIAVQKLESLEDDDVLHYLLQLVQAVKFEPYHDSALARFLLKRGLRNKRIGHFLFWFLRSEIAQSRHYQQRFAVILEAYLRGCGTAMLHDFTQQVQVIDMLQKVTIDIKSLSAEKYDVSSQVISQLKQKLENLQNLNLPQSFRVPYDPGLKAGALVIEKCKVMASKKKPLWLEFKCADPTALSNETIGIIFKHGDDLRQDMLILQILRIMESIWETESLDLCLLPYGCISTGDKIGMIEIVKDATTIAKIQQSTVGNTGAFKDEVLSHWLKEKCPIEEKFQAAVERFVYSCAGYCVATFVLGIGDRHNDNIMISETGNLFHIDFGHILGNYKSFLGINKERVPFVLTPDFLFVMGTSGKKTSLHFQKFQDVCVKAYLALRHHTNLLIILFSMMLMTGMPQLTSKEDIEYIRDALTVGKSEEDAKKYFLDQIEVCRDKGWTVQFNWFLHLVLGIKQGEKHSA

Experimental: Assays contained either 7 nM p101/p120 or 36 nM p120 alone (final concentrations) which were incubated with various reagents; 10 mM NaF and 30 μM AlCl3 (A/F) ; 1 μM Gβγ-subunits (βγ); 2 μM Gα-GDP; 100 nM wortmannin (W) or 50 μM tyrosine phosphorylated peptide (PY) for a total of 15 minutes (at 0° C.) prior to starting the assays by adding [γ^32 P]-ATP; [^32 P]-incorporated into [^32 P]-PtdIns(3,4,5) P3 was quantified. The data shown are means (n=2).
Purified aliquots of Sf9 -derived or pig neutrophil cytosol-derived PI3K were diluted in ice-cold 0.12M NaCl, 25 mM HEPES, 1 mM EGTA, 1 mM DTT, 1 mg-ml^-1 BSA, 1% betaine, 0.02%, w/v, Tween-20, pH 7.4, 0° C. to an appropriate extent, then 5 μl aliquots were stored on ice until assayed. […] 30 μl of a mixture of phospholipids with or without Gβγs and/or Gαs (either GDP-bound or activated) was added to the 5 μl fractions, or 10 μl of beads, and mixed. After 10 minutes on ice, 5-10 μl of last wash buffer, supplemented with MgCl2 to give a final concentration in the extant assay volume of 3.5 mM, was added and mixed. Six minutes later, 5 μl of last wash buffer was added (to give a final assay volume of 50 μl) containing [^32 ]-ATP (typically 10 μCi assay^-1, Amersham, PB10168) and 3.5 mM MgCl2, tubes were mixed and transferred to a 30° C. water bath. […]

B1: p120: catalytic subunit of the G protein-regulated PI3K; the b332 result is for the form after complete thrombin cleavage (protein)
chain: MELENYEQPVVLREDNRRRRRRMKPRSTAASLSSMELIPIEFVLATSQRNTKTPETALLHVAGHGNVEKMKAQVLLRALETSVSWDFYHRFGPDHFLLVFQKKGEWYEIYDKYQVVQTLDCLRYWEVLHRSPGQIHVVQRHAPSEETLAFQRQLNALIGYDVTDVSNVHDDELEFTRRRLVTPRMAEVAGRDPKLYAMHPWVTSKPLPEYLLKKITNNCVFIVIHRSTTSQTIKVSADDTPGTILQSFFTKMAKKKSLMDIPESQNERDFVLRVCGRDEYLVGETPIKNFQWVRQCLKNGEEIHLVLDTPPDPALDEVRKEEWPLVDDCTGVTGYHEQLTIHGKDHESVFTVSLWDCDRKFRVKIRGIDIPVLPRTADLTVFVEANIQYGQQVLCQRRTSPKPFTEEVLWNVWLEFSIKIKDLPKGALLNLQIYCGKAPALSGKTSAEMPSPESKGKAQLLYYVNLLLIDHRFLLRHGEYVLHMWQLSGKGEDQGSFNADKLTSGTNPDKEDSMSISILLDNYCHPIALPKHRPTPDPEGDRVRAEMPNQLRKQLEAIIATDPLNPLTAEDKELLWHFRYESLKDPKAYPKLFSSVKWGQQEIVAKTYQLLAKREVWDQSALDVGLTMQLLDCNFSDENVRAIAVQKLESLEDDDVLHYLLQLVQAVKFEPYHDSALARFLLKRGLRNKRIGHFLFWFLRSEIAQSRHYQQRFAVILEAYLRGCGTAMLHDFTQQVQVIDMLQKVTIDIKSLSAEKYDVSSQVISQLKQKLENLQNLNLPQSFRVPYDPGLKAGALVIEKCKVMASKKKPLWLEFKCADPTALSNETIGIIFKHGDDLRQDMLILQILRIMESIWETESLDLCLLPYGCISTGDKIGMIEIVKDATTIAKIQQSTVGNTGAFKDEVLSHWLKEKCPIEEKFQAAVERFVYSCAGYCVATFVLGIGDRHNDNIMISETGNLFHIDFGHILGNYKSFLGINKERVPFVLTPDFLFVMGTSGKKTSLHFQKFQDVCVKAYLALRHHTNLLIILFSMMLMTGMPQLTSKEDIEYIRDALTVGKSEEDAKKYFLDQIEVCRDKGWTVQFNWFLHLVLGIKQGEKHPA
With B1, the “reduction of p120 PI3K catalytic activity by removal of about 40 amino terminal residues (thrombin cleavage)” value was 20-30%.
